Laboratory results reported in patent publication US20260284212 (published 2026).
Changes are numbered by the printed parent chain.

T1: human CD5 (human, UniProt P06127)
T1 chain: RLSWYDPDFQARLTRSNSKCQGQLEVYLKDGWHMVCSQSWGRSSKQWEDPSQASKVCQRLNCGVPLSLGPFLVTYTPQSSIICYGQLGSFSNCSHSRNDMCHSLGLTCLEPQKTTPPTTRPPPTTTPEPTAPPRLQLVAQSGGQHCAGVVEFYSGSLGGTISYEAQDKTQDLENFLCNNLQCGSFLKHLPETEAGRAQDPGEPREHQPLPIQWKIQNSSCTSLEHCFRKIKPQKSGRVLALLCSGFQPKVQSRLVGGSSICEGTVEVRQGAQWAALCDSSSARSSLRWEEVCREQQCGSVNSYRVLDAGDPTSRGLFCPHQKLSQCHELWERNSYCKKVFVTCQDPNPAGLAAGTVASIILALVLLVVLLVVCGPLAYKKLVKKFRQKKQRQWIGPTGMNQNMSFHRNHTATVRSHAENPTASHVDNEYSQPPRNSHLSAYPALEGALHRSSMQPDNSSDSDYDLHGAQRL

T2: human CD6 (human, UniProt P30203)
T2 chain: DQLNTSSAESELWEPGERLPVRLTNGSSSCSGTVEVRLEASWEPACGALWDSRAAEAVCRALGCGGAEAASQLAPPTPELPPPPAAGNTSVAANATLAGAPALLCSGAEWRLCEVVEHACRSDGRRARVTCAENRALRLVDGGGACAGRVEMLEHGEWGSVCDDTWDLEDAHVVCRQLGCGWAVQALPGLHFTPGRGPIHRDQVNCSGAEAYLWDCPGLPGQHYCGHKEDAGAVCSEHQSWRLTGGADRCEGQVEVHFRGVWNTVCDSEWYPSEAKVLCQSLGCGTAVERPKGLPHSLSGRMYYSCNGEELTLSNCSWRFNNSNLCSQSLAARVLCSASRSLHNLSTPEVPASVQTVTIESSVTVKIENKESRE

B1: CD601HH8 HuG1Fc (antibody, V domains shown)
VH: QVQLVESGGGLVQPGGSLRLSCSASERTFSDYAMGWFRQAPGKEREFVAAINWVGGSTYYADSVKGRFTISRDNSKNTLYLQMNSLRAEDTAVYYCVASWGAMPVLTHVINYWGKGTLVTVSS
B2: A1CD601 VHH HuG1Fc (chimeric) (antibody, V domains shown)
VH: QVQLQESGGGLVQAGGSLRLSCTASERTFSDYALGWFRQGPGKEREFVAAINWVGGSTYYADSVKGRFTISRDNAKNTLLLQMNSLKPEDTAVYFCVASWGAMPVLTHVINYWGKGTQVTVSS
B3: CD601HH12 HuG1Fc (antibody, V domains shown)
VH: B1 VH with S23T, M34L
B4: CD601HH10 HuG1Fc (antibody, V domains shown)
VH: B1 VH with V5Q, M34L
B5: CD601HH14 HuG1Fc (antibody, V domains shown)
VH: B1 VH with M34L, S75A

Target: T1, human CD5
Experiment: ELISA

Row | binding result | Binder
1 | no binding | B1
2 | no binding | B2
3 | no binding | B3
4 | no binding | B4
5 | no binding | B5

Target: T2, human CD6
Experiment: ELISA

Row | EC50 [nM] | Binder
6 | 0.053 | B1
7 | 0.053 | B2
8 | 0.05 | B3
9 | 0.066 | B4
10 | 0.053 | B5

Target: T2, human CD6
Experiment: not given

Row | Kd [nM] | Binder
11 | 0.24 | B1
12 | 0.21 | B2
13 | 0.222 | B3
14 | 0.247 | B4
15 | 0.269 | B5
